We go through 1 molecule from patent US9168297B2, “Regulation of skin pigmentation by neuregulin-1 (NRG-1)” (The United States of America, as Represented by the …, priority 2010, dated 2015).

The subject of assay [1] is MelanoDerm 3-D reconstructed human skin. The experiment in a line: Pigmentation of 3-D reconstructed skin (MelanoDerm), L value and microscopy. It counts as cell-based. To be noted: for ΔL (pigmentation, L value): day 9, vs vehicle. The protocol:
Light, Medium, and Dark human epidermal equivalents (MelanoDerm®) were purchased from MatTek Corp. (Ashland, Mass.). MelanoDerms were grown at the air/liquid interface of the maintenance medium MEL-LLMM (MatTek Corp.), and the culture medium was renewed every 2 days. Where noted, MelanoDerms were treated for 9 days with 50 ng/ml NRG-1 (rhNRG-1-β1, R&D Systems, Minneapolis, Minn.) prepared in phosphate-buffered saline (PBS) with 0.1% bovine serum albumin (BSA) and MelanoDerm maintenance medium. The same concentrations of PBS and BSA were used for mock-treated controls.
For the studies where the MelanoDerms were treated with NRG-1 and/or various pan-ERBB inhibitors, Dark MelanoDerms were first incubated with a pan-ERBB inhibitor (0.5 μM Compound 39, EMD Chemicals, Gibbistown, N.J. or 2 μM CI-1033, Selleck Chemicals LLC, US) for 30 minutes or with vehicle (DMSO) only before treatment with 50 ng/ml NRG-1; identical amounts of DMSO (0.02%) were added to all samples. Treatment was renewed every 2 days in fresh medium and was continued for 9 days.
Three dimensional (3-D) reconstructed human skin models (termed MelanoDerms) were used to test the effects of NRG-1 on skin pigmentation. Three types of MelanoDerm, ‘light’ ([…]), ‘medium’ ([…]) and ‘dark’ ([…]), were used to compare the effects of NRG-1 on those three types of skin. In preliminary studies to optimize the concentration of NRG-1 (from 10 to 200 ng/ml were tested, FIG. 10), 50 ng/ml was chosen which was consistent with concentrations of NRG-1 used for other cell types by other groups. NRG-1 was added to the MelanoDerm media at 50 ng/ml and the medium was replenished every 2 days. On day 9, the MelanoDerms treated with NRG-1 were compared to controls treated only with vehicle. Pigmentation of the skin was assessed using the L value, higher L values indicating lighter colors. […] It should be noted that relatively small changes in ΔL can represent relatively large changes in visible skin color. For example, the mean L value of White/Caucasian skin is 67, that of Asians, Pacific-Islanders is 65, that of Hispanic/Latinos is 64, and that of American Indian/Alaska Native is 62. […] In the vehicle-treated control MelanoDerms, melanin pigment was more evenly distributed throughout the entire epidermis and no visible melanin accumulation was observed around melanocytes (FIG. 3B). […] Therefore, NRG-1 leads to visible increases in pigmentation in the MelanoDerms which was greater as the skin had more constitutive pigmentation.

The subject of another assay is HEM-DP melanocytes. The assay can be described thus: Proliferation of cultured melanocytes, total cell numbers counted. To be noted: NRG-1 50 ng/ml, as early as day 1 until confluent, vs control. It counts as cell-based, human. The protocol:
(§1) FIGS. 5A-5D illustrate the effect of NRG-1 on the proliferation of human melanocytes in culture. FIG. 5A) Lightly-pigmented (HEM-LP) and FIG. 5B) darkly-pigmented (HEM-DP) melanocytes were treated with or without NRG-1 (50 ng/ml) for 1, 3, 5 or 9 days in 10 cm culture dishes and total cell numbers were counted. Results are the averages of three studies±SD. FIG. 5C) Phosphorylated-Akt levels were detected by western blotting for HEM-LP and HEM-DP melanocytes treated with NRG-1 (50 ng/ml) for 5 days compared to vehicle treated controls; GAPDH is used as a loading control. FIG. 5D) HEM-DP melanocytes were treated with NRG-1 (50 ng/ml) for 1, 3 or 5 days and p-Akt levels were detected by western blotting compared to vehicle treated controls; GAPDH is used as a loading control. Results shown are representative of three studies; statistically significant differences are indicated.
(§2) Human neonatal epidermal melanocytes, lightly and darkly pigmented (HEM-LP and HEM-DP, respectively) were obtained from Cascade Biologics (Portland, Oreg.) and were cultured in melanocyte growth medium (MGM) consisting of Medium 254 and human melanocyte growth supplement (both from Cascade Biologics) at 37° C. under 5% CO2. Melanocytes from the third to ninth passage were used in these studies. […]

Assay [2] deals with HEM-LP melanocytes. The assay is described as above. It counts as cell-based, human. As to conditions: NRG-1 50 ng/ml, as early as day 1 until confluent, vs control. The protocol:
as §1, §2

Assay [3] has as its system HEM-LP melanocytes. The experiment in a line: Melanin content assay (melanin/protein). As to conditions: NRG-1 50 ng/ml. It counts as cell-based, human. The protocol:
FIGS. 6A and 6B are bar graphs illustrating the effect of NRG-1 on the pigmentation of cultured human melanocytes. FIG. 6A) Lightly-pigmented (HEM-LP) and FIG. 6B) Darkly-pigmented (HEM-DP) melanocytes were treated with or without NRG-1 (50 ng/ml) for 1, 3, 5 or 9 days and proteins were extracted from each sample. After centrifugation at 10,000 g for 15 minutes, precipitates were analyzed for melanin content, and the supernatants were analyzed for protein content. Results are the average of three studies±SD; statistically significant differences are indicated.
Melanin contents were determined by dissolving cell pellets overnight at room temperature in 200 μl 1 N NaOH, and melanin concentrations were quantitated by absorbance at 405 nm in a SpectraMax 250 ELISA reader (Molecular Devices) using a standard curve generated from synthetic melanin (Sigma-Aldrich, St. Louis, Mo.). Melanin content is expressed as μg melanin per μg protein. Each study was repeated at least three times.
The effects of NRG-1 on the pigmentation of human melanocytes were also examined. […] However, on day 9, when the cells had reached confluence, the pigmentation level of NRG-1-treated HEM-LP melanocytes was about 35% higher than the control (FIG. 6A).

B1: NRG-1: commercially available recombinant human neuregulin-1 (rhNRG-1-β1, R&D Systems), SEQ ID NO: 11 (protein)
chain: TSHLVKCAEKEKTFCVNGGECFMVKDLSNPSRYLCKCPNEFTGDRCQNYVMASFYKHLGIEFMEAEELYQK
On to B1, for which the “Melanocyte growth in MelanoDerm skin model” value in assay [1] (MelanoDerm, NRG-1) is on record as “did not increase melanocyte growth”. Also, the “Melanocyte morphology, bright field microscopy” value in assay [1] (MelanoDerms, NRG-1 50 ng/ml, vs vehicle-treated control) is recorded as “more abundant cytoplasm with thicker dendrites”. The “ΔL (pigmentation, L value)” value in assay [1] (dark MelanoDerms, NRG-1 50 ng/ml) is −3; in assay [1] (light MelanoDerms, NRG-1 50 ng/ml), −1; in assay [1] (medium MelanoDerms (Asian skin), NRG-1 50 ng/ml), −2. The Cell numbers result in the assay with HEM-DP melanocytes and with HEM-LP melanocytes [2] was “significantly higher” in each case. Moreover, the “Pigmentation level higher than the control” value in the assay with HEM-LP melanocytes [3] (day 9, confluent) is given as “about 35%”. In addition, the “Level of pigmentation (melanin/protein)” value in the assay on HEM-LP melanocytes [3] (days 1 through 5, subconfluent, vs control) is on record as “not significantly different”.
